T1: human GIP receptor (human) (UniProt P48546)
T1 sequence (looked up): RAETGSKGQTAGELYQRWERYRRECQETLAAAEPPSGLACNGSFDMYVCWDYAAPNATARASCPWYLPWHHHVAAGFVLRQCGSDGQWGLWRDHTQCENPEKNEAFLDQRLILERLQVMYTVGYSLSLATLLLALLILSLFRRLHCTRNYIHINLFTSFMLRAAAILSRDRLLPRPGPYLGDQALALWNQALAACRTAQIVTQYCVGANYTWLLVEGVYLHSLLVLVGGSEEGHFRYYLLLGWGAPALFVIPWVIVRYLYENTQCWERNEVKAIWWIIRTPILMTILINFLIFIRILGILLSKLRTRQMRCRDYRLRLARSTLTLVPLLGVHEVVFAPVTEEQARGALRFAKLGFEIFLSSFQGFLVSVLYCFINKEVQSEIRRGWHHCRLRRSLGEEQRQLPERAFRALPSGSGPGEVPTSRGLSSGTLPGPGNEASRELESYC


What was measured:
Assay in all cases: cell-based or functional assay
[1] = target: human glucagon receptor (human) (UniProt P47871)
[2] = target: T1, human GIP receptor (human)
[3] = target: hGLP-1R (Homo sapiens, UniProt P43220)
hGLP-1R, sequence (P43220 24-463): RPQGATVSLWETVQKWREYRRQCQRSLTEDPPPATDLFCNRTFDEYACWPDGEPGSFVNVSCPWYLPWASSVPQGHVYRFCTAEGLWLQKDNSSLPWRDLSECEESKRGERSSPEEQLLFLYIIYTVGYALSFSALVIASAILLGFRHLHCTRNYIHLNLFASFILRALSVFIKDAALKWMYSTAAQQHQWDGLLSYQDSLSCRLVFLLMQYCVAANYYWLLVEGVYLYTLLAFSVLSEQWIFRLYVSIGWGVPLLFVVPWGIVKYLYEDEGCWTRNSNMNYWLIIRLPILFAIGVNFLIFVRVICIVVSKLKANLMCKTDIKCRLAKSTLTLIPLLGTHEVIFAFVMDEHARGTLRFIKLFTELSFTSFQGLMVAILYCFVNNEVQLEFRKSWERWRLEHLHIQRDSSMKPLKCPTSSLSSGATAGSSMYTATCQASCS

human glucagon receptor (human), sequence (P47871 26-477): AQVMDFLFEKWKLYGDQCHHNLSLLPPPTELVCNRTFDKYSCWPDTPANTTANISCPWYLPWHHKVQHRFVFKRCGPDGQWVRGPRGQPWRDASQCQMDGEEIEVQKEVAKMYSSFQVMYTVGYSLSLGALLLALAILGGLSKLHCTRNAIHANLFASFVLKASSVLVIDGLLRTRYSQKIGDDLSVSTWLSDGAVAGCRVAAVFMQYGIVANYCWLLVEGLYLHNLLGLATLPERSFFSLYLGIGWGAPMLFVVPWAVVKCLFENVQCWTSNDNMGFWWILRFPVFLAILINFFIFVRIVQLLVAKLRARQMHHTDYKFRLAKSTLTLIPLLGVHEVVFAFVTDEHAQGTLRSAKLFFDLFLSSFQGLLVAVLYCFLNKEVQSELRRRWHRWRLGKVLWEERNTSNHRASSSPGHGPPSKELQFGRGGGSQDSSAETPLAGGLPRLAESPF

| Binder | Relative cAMP EC50 [1] [nM] | cAMP Rel EC50 (in the presence of 1% HSA) [1] [nM] | Relative cAMP EC50 [2] [nM] | cAMP Rel EC50 (in the presence of 1% HSA) [2] [nM] | Relative cAMP EC50 [3] [nM] | cAMP Rel EC50 (in the presence of 1% HSA) [3] [nM] |
| --- | --- | --- | --- | --- | --- | --- |
| YXQGTXTSDXXIXLDXKAQXEFIEXLIEGGPSSGAPPPSGGGE (acylated Lys, C-terminal amide, non-natural residues; synthetic construct; SITE 2: note = 2-Aminoisobutyric Acid; SITE 6: note = alpha-methyl-2-fluoro-L-phenylalanine; SITE 10: note = 3-(4-Pyridyl)-L-alanine; SITE 11: note = alpha-methyl-L-serine; SITE 13: note = alpha-methyl-leucine; SITE 16: note = L-ornithine; SITE 17: note = Lysine is chemically mo) [Example 1180] | 3.16 | 205 | 0.00602 | 0.341 | 0.445 | 35.6 |
| YXQGTFTSDXXQXLDXKAQXQFIQXLIEGGPSSGEPPPSGGGE (not fully specified; non-natural residues; lysine acylated γGlu-C18 diacid; C-terminal amide; synthetic construct; SITE 2: note = 2-Aminoisobutyric Acid; SITE 10: note = 3-(4-Pyridyl)-L-alanine; SITE 11: note = alpha-methyl-L-serine; SITE 13: note = alpha-methyl-leucine; SITE 16: note = L-ornithine; SITE 17: note = Lysine is chemically modified through conjugation of the epsilon-amino group) [Example 1188] | 1.16 | 130 | 0.0914 | 7.02 | 1.01 | 77.1 |
| YXQGTFTSDXXQXLDXKAQXQFIQXLIEXGPSSGAPPPSGGGE (not fully specified; non-natural residues; Lys acylated γGlu-C18 diacid; C-terminal amide; synthetic construct; SITE 2: note = 2-Aminoisobutyric Acid; SITE 10: note = 3-(4-Pyridyl)-L-alanine; SITE 11: note = alpha-methyl-L-serine; SITE 13: note = alpha-methyl-leucine; SITE 16: note = L-ornithine; SITE 17: note = Lysine is chemically modified through conjugation of the epsilon-amino group) [Example 1186] | 1.46 | 164 | 0.0404 | 3.17 | 0.594 | 52.1 |
| YXQGTFTSDXXQXLDXKAQXQFIEXLIEXGPSSGAPPPSGGGE (not fully specified; non-natural residues; γGlu-C18 diacid on Lys; C-terminal amide; synthetic construct; SITE 2: note = 2-Aminoisobutyric Acid; SITE 10: note = 3-(4-Pyridyl)-L-alanine; SITE 11: note = alpha-methyl-L-serine; SITE 13: note = alpha-methyl-leucine; SITE 16: note = L-ornithine; SITE 17: note = Lysine is chemically modified through conjugation of the epsilon-amino group) [Example 1187] | 1.81 | 370 | 0.0648 | 7.11 | 1.06 | 154 |
| YXQGTFTSDXXQXLDXKAQXQFIEXLIEXGPSSGEPPPSGGGE (non-natural residues, lysine acylation, C-terminal amide; synthetic construct; SITE 2: note = 2-Aminoisobutyric Acid; SITE 10: note = 3-(4-Pyridyl)-L-alanine; SITE 11: note = alpha-methyl-L-serine; SITE 13: note = alpha-methyl-leucine; SITE 16: note = L-ornithine; SITE 17: note = Lysine is chemically modified through conjugation of the epsilon-amino group) [Example 1184] | 1.5 | 295 | 0.071 | 8.39 | 1.18 | 179 |
| YXQGTXTSDXXIXLDXKAQXEFIEXLIEGGPPSXXPPPXGGGE (Lys acylated AEEA-γGlu-C18 diacid; non-natural residues; C-amide; synthetic construct; SITE 2: note = 2-Aminoisobutyric Acid; SITE 6: note = alpha-methyl-2-fluoro-L-phenylalanine; SITE 10: note = 3-(4-Pyridyl)-L-alanine; SITE 11: note = alpha-methyl-L-serine; SITE 13: note = alpha-methyl-leucine; SITE 16: note = L-ornithine; SITE 17: note = Lysine is chemically mo) [Example 1197] | 1.88 | 288 | 0.00666 | 0.639 | 0.407 | 46.1 |
| YXQGTXTSDXXIXLDXKAQXEFIEXLIEGGPPSXEPPPSGGGE (non-natural residues; acylated Lys; C-terminal amide; synthetic construct; SITE 2: note = 2-Aminoisobutyric Acid; SITE 6: note = alpha-methyl-2-fluoro-L-phenylalanine; SITE 10: note = 3-(4-Pyridyl)-L-alanine; SITE 11: note = alpha-methyl-L-serine; SITE 13: note = alpha-methyl-leucine; SITE 16: note = L-ornithine; SITE 17: note = Lysine is chemically mo) [Example 1201] | 1.76 | 234 | 0.00959 | 1.02 | 0.888 | 93.9 |
| YXQGTXTSDXXIXLDXKAQXEFIEXLIEGGPPSXXPPPSGGGE (Lys acylated with AEEA-γGlu-C18 diacid; non-natural residues; C-amide; synthetic construct; SITE 2: note = 2-Aminoisobutyric Acid; SITE 6: note = alpha-methyl-2-fluoro-L-phenylalanine; SITE 10: note = 3-(4-Pyridyl)-L-alanine; SITE 11: note = alpha-methyl-L-serine; SITE 13: note = alpha-methyl-leucine; SITE 16: note = L-ornithine; SITE 17: note = Lysine is chemically mo) [Example 1199] | 2.05 | 352 | 0.0076 | 0.733 | 0.5 | 63.9 |
| YXQGTXTSDXXIXLDXKAQXEFIEXLIEGGPSSGEPPPSGGGE (non-natural residues; Lys acylated C18 diacid; C-terminal amide; synthetic construct; SITE 2: note = 2-Aminoisobutyric Acid; SITE 6: note = alpha-methyl-2-fluoro-L-phenylalanine; SITE 10: note = 3-(4-Pyridyl)-L-alanine; SITE 11: note = alpha-methyl-L-serine; SITE 13: note = alpha-methyl-leucine; SITE 16: note = L-ornithine; SITE 17: note = Lysine is chemically mo) [Example 1181] | 3.34 | 203 | 0.0115 | 0.666 | 0.664 | 48.2 |
| YXQGTFTSDXXQXLDXKAQXQFIEXLIAXGPSSGAPPPSGGGE (not fully specified; non-natural residues; γGlu-C18 diacid on Lys; C-terminal amide; synthetic construct; SITE 2: note = 2-Aminoisobutyric Acid; SITE 10: note = 3-(4-Pyridyl)-L-alanine; SITE 11: note = alpha-methyl-L-serine; SITE 13: note = alpha-methyl-leucine; SITE 16: note = L-ornithine; SITE 17: note = Lysine is chemically modified through conjugation of the epsilon-amino group) [Example 1185] | 1.64 | 206 | 0.0266 | 2.31 | 0.762 | 66.1 |
| YXQGTXTSDXXIXLDXKAQXEFIEXLIEGGPSSGAPPPSGSE (non-natural residues; AEEA-(γGlu)2-C18 diacid on Lys; amide; synthetic construct; SITE 2: note = 2-Aminoisobutyric Acid; SITE 6: note = alpha-methyl-2-fluoro-L-phenylalanine; SITE 10: note = 3-(4-Pyridyl)-L-alanine; SITE 11: note = alpha-methyl-L-serine; SITE 13: note = alpha-methyl-leucine; SITE 16: note = L-ornithine; SITE 17: note = Lysine is chemically mo) [Example 1178] | – | 270 | – | 0.544 | – | 39 |
| YXQGTXTSDXXIXLDXKAQXEFIEXLIEGGPPSXXPPPSGSE (non-natural residues; lysine acylated AEEA-γGlu-C18 diacid; C-terminal amide; synthetic construct; SITE 2: note = 2-Aminoisobutyric Acid; SITE 6: note = alpha-methyl-2-fluoro-L-phenylalanine; SITE 10: note = 3-(4-Pyridyl)-L-alanine; SITE 11: note = alpha-methyl-L-serine; SITE 13: note = alpha-methyl-leucine; SITE 16: note = L-ornithine; SITE 17: note = Lysine is chemically mo) [Example 1198] | 1.8 | 314 | 0.00663 | 0.67 | 0.475 | 61 |
| YXQGTXTSDXXIXLDXKAQXEFIEXLIEGGPPSXEPPPSGSE (non-natural residues, acylated Lys (AEEA-γGlu-C18 diacid), C-terminal amide; synthetic construct; SITE 2: note = 2-Aminoisobutyric Acid; SITE 6: note = alpha-methyl-2-fluoro-L-phenylalanine; SITE 10: note = 3-(4-Pyridyl)-L-alanine; SITE 11: note = alpha-methyl-L-serine; SITE 13: note = alpha-methyl-leucine; SITE 16: note = L-ornithine; SITE 17: note = Lysine is chemically mo) [Example 1200] | 1.5 | 278 | 0.00883 | 0.896 | 0.727 | 91.4 |
